{"source": "patent US20220144911A1", "about": "(UAB RESEARCH FOUNDATION, published 2022)", "binders": {"B1": {"name": "RhIL10R1-FC-SLS (Fc fusion)", "chain": "AHGTELPSPPSVWFEAEFFHHILHWTPIPNQSESTCYEVALLRYGTGRWNSISNCSQALSYDLTAVTLDLYRSNGYWARVRAVDGSRHSNWTVTNTRFSLDEVTLTVGSVKLEIHNGFILGKIQPPRPKMAPANDTYESIFRHFREYEIAIRKVPGNFTFTHKKVKHENFSLLTSGEVGEFCVQVKPSVTSRTNKGMWSKEECVSLTRQYFTVTNVGSGGGGPSVFLFPPKPKDTLMISRTPEVTCVVVDVSQEDPDVKFNWYVNGAEVHHAQTKPRETQYNSTYRVVSVLTVTHQDWLNGKEYTCKVSNKALPAPIQKTISKDKGQPREPQVYTLPPSREELTKNQVSLTCLVKGFYPSDIVVEWESSGQPENTYKTTPPVLDSDGSYFLYSKLTVDKSRWQQGNVFSCSVMHEALHNHYTQKSLSLSGGCGTPGK", "notes": "also called RhIL10R1-SLS; Rh10R1-FC"}}, "key": {"cellular RhIL10 [1]": {"biological_target": "T1, cellular RhIL10 (rhesus macaque, UniProt P51496 19-178)", "T1 construct": "also called Rhesus IL10", "T1 sequence (P51496 19-178 limits assumed)": "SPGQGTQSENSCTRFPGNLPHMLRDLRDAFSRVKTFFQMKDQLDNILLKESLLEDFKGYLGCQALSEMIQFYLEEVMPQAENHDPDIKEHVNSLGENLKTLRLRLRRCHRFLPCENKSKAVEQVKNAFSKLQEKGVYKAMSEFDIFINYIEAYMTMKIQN", "experiment": "SPR (Biacore T-200), RhIL10R1-FC captured by anti-human FC, IL10 as analyte, 1:1 model", "method": "(§1) Following the association phase, dissociation was monitored for 720 seconds. The binding parameters were extracted from the sensorgrams by fitting the data to a 1:1 binding model.\n(§2) Surface Plasmon Resonance (SPR): SPR data collection and analysis was performed using a Biacore T-200 (GE healthcare). […] Sensorgrams were fit to appropriate models using Biacore T-200 evaluation software version 1.0."}, "RhCMVIL10": {"biological_target": "RhCMVIL10 (rhesus cytomegalovirus (printed as …))", "sequence (P51496 whole entry)": "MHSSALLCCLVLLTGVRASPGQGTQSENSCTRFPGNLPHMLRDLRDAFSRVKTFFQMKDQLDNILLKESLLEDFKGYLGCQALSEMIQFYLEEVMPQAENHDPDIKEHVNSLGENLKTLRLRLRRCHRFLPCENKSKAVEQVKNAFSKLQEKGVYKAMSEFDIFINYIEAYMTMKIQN"}, "cellular RhIL10 [2]": {"biological_target": "T1, cellular RhIL10", "experiment": "SPR, ratio of KD values", "method": "as §1, §2"}}, "data": [{"binder": "B1", "values": [{"measurement": "Kd", "setting": "cellular RhIL10 [1]", "result": 0.136, "unit": "nM"}, {"measurement": "koff", "setting": "cellular RhIL10 [1]", "result": 0.000454, "unit": "s⁻¹"}, {"measurement": "kon", "setting": "cellular RhIL10 [1]", "result": "3.35e+06", "unit": "M⁻¹ s⁻¹"}, {"measurement": "Kd", "setting": "RhCMVIL10", "result": 0.0724, "unit": "nM"}, {"measurement": "koff", "setting": "RhCMVIL10", "result": 0.00017, "unit": "s⁻¹"}, {"measurement": "kon", "setting": "RhCMVIL10", "result": "2.35e+06", "unit": "M⁻¹ s⁻¹"}, {"measurement": "fold greater affinity than 1F11", "setting": "cellular RhIL10 [2]", "result": 4.8, "unit": "fold"}]}]}
